PMC11002309

Test system: PBRM1-BD4 WT
Test: EMSA
Conditions: 20 uM chosen from titration to approximate EC50; 150 nM DNA, protein 0-50 uM; EMSA: 10.5 mM K3PO4 pH 7 (20 °C), 10 mM KCl, 1% v/v glycerol, 0.2 mM DTT; 1 h on ice; 5% 75:1 native gel in 0.2x TBE, 4 °C

Substance Widom 601 DNA has a K half of 20 µM.
